Experimental data: US20260274955A1 (JANUX THERAPEUTICS, published 2026)

Assays:
[1] = target: T1, anti-CD28 Fab (SEQ ID NOs: 202, 203); assay: phage ELISA on captured Fab;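 further: ELISA with clonal phage supernatants added to wells preincubated with CD28 antigen or with blocking buffer only, bound phage detected by HRP-conjugated anti-M13 antibody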
T1 construct: biotinylated and captured on neutravidin coated plates in the phage ELISA
Procedure: (§1) Clonal phage were harvested as crude supernatants and screened via standard ELISAs. […] Prior to the addition of clonal phage, wells were incubated with blocking buffer and CD28 antigen or blocking buffer alone. Without washing or aspirating, clonal phage supernatants were then added to the wells and incubated for a short time. Wells were then washed followed by detection of bound phage using a horse radish conjugated anti-M13 antibody.

[2] = target: T1, anti-CD28 Fab (SEQ ID NOs: 202, 203); assay: phage ELISA on captured Fab, wells pre-incubated with CD28 antigen (competitor);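 further: clonal phage ELISA with wells pretreated with CD28 plus blocking buffer before phage addition, bound phage detected by HRP-linked anti-M13 antibody, reference wells got blocking buffer only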
Procedure: as §1

[3] = target: Anti-CD28 Fab (SEQ ID NOs: 202, 203); assay: phage binding ELISA on captured Fab;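 further: clonal phage supernatants added briefly to wells pre-incubated with CD28 antigen or with blocking buffer only, then washed, bound phage read by ELISA using HRP-coupled anti-M13 antibody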
Procedure: as §1

[4] = target: Anti-CD28 Fab (SEQ ID NOs: 202, 203); assay: phage binding ELISA on captured Fab, competitor CD28 antigen;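 further: clonal phage supernatant binding in wells preincubated with CD28 antigen in blocking buffer, detected by HRP-conjugated anti-M13 antibody ELISA, compared with blocking buffer alone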
Procedure: as §1

T1 sequence (VH, as listed by the source, chain 1 of 2): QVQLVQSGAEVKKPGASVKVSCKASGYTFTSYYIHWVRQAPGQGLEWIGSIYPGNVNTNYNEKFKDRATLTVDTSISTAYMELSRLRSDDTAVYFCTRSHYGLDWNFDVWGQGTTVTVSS
T1 sequence (VL, as listed by the source, chain 2 of 2): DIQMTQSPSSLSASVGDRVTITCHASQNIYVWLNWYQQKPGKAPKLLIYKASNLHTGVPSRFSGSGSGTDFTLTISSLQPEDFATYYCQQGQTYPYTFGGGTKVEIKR
Sequence of Anti-CD28 Fab (SEQ ID NOs: 202, 203) (VH, as listed by the source, chain 1 of 2): as the sequence (VH, as listed by the source, chain 1 of 2) above
Sequence of Anti-CD28 Fab (SEQ ID NOs: 202, 203) (VL, as listed by the source, chain 2 of 2): as the sequence (VL, as listed by the source, chain 2 of 2) above

Binder	Anti-CD28 Fab (SEQ ID NOs: 202, 203) signal [1]	Anti-CD28 Fab signal in the presence of CD28 [2]	Anti-CD28 Fab (SEQ ID NOs: 202, 203) signal [3]	Anti-CD28 Fab signal in the presence of CD28 [4]
YCDGHSPAYIWKCL (on phage, pIII fusion) [Phage-450]	1.68	0.08	–	–
YCDGHSEQYMSKCL (on phage, pIII fusion) [Phage-451]	1.68	0.07	–	–
YCDGHSEVYMAKCL (on phage, pIII fusion) [Phage-471]	1.66	0.06	–	–
YCDGHSLQYMSKCL (on phage, pIII fusion) [Phage-589]	1.45	0.06	–	–
YCDGHAQEYMDKCL (on phage, pIII fusion) [Phage-500]	1.62	0.08	–	–
YCDGHAKEYMDKCL (on phage, pIII fusion) [Phage-452]	1.68	0.08	–	–
YCDGHSTEYMEKCL (on phage, pIII fusion) [Phage-453]	1.68	0.08	–	–
YCDGHSVEYMEKCL (on phage, pIII fusion) [Phage-476]	1.65	0.09	–	–
YCDGHSQEYMEKCL (on phage, pIII fusion) [Phage-564]	1.5	0.06	–	–
YCDGHSSLYMHKCL (on phage, pIII fusion) [Phage-454]	1.67	0.07	–	–
YCDGHSWQYISKCL (on phage, pIII fusion) [Phage-455]	1.67	0.05	–	–
YCEGHAPQYMNKCL (on phage, pIII fusion) [Phage-456]	1.67	0.08	–	–
YCEGHAPQYMTKCL (on phage, pIII fusion) [Phage-461]	1.67	0.08	–	–
YCDGHAPQWMAKCL (on phage, pIII fusion) [Phage-457]	1.67	0.1	–	–
YCDGHSREYMSKCL (on phage, pIII fusion) [Phage-458]	1.67	0.1	–	–
YCDGHSREYMNKCL (on phage, pIII fusion) [Phage-469]	1.66	0.06	–	–
YCDGHAAEYMAKCV (on phage, pIII fusion) [Phage-459]	1.67	0.07	–	–
YCEGHAQEYMNKCL (on phage, pIII fusion) [Phage-460]	1.67	0.06	–	–
YCDGHSADYMAKCL (on phage, pIII fusion) [Phage-462]	1.67	0.07	–	–
YCDGHIGLYLNKCL (on phage, pIII fusion) [Phage-463]	1.66	0.06	–	–
YCEGHLPMYMIKCL (on phage, pIII fusion) [Phage-464]	1.66	0.09	–	–
YCEGHLPQYMRPCL (on phage, pIII fusion) [Phage-465]	1.66	0.08	–	–
YCEGHLSQYMSKCL (on phage, pIII fusion) [Phage-466]	1.66	0.07	–	–
YCDGHSPEYIGKCL (on phage, pIII fusion) [Phage-467]	1.66	0.07	–	–
YCDGHSLEYIGKCL (on phage, pIII fusion) [Phage-494]	1.63	0.06	–	–
YCAGHLPEFMDKCL (on phage, pIII fusion) [Phage-468]	1.66	0.06	–	–

Binder	Anti-CD28 Fab (SEQ ID NOs: 202, 203) signal [1]	Anti-CD28 Fab signal in the presence of CD28 [2]	Anti-CD28 Fab (SEQ ID NOs: 202, 203) signal [3]	Anti-CD28 Fab signal in the presence of CD28 [4]
YCDGHDVEYMAKCL (on phage, pIII fusion) [Phage-470]	1.66	0.07	–	–
YCDGHDVEYMSKCL (on phage, pIII fusion) [Phage-486]	1.64	0.05	–	–
YCDGHRVEYMAKCL (on phage, pIII fusion) [Phage-522]	1.58	0.09	–	–
YCEGHKKEYMLKCL [Phage-863]	–	–	0.56	0.08
YCEGHVELYRQKCL [Phage-864]	–	–	0.56	0.06
YCDGHLETYMQKCL [Phage-865]	–	–	0.53	0.08
YCQGHLPIYIQKCL [Phage-866]	–	–	0.51	0.07
YCEGHLDEYLQKCM [Phage-867]	–	–	0.51	0.08
YCAGHTTEYIVKCL [Phage-868]	–	–	0.5	0.05
YCEGHVPQYMGKCL [Phage-869]	–	–	0.5	0.08
YCDGHAAMYMSKCL [Phage-870]	–	–	0.5	0.07
YCEGHLGLYMKKCL [Phage-871]	–	–	0.49	0.06
YCAGHAQEYMRKCL [Phage-872]	–	–	0.49	0.07
YCAGHIPQYLNKCL [Phage-873]	–	–	0.49	0.07
YCDGHSTEYMWKCL [Phage-874]	–	–	0.49	0.06
YCEGHIKDYMTKCL [Phage-875]	–	–	0.47	0.08
YCAGHDAEYMQKCL [Phage-876]	–	–	0.46	0.06
YCEGHMQWYMAKCL [Phage-877]	–	–	0.45	0.09
YCEGHAPVYMQKCL [Phage-878]	–	–	0.44	0.08
YCDGHDEQYLMKCL [Phage-879]	–	–	0.44	0.07
YCDGHSQIYMSKCL [Phage-882]	–	–	0.42	0.06
YCDGHWPGYLWKCL [Phage-883]	–	–	0.42	0.06
YCTGWQVAYMQNCF [Phage-884]	–	–	0.42	0.06
YCAGHLDEYMEKCL [Phage-885]	–	–	0.4	0.07
YCDGHTWMYKQKCL [Phage-886]	–	–	0.4	0.08
